“Also recorded” adds a separate entry of the source. Each block holds one molecule with its values, some of them ahead of it.
How the values were obtained:
KMS-12-BM tumor = assay: Human KMS-12-BM subcutaneous xenograft model; type: in vivo, SCID mice; details: 1 mg/kg i.v. twice a week for two weeks (maximal tolerated dose); P>0.05
Protocol: Female SCID mice were treated with 3Gy irradiation one day prior to implantation of tumor cells. On the day of implantation, cells were prepared at a concentration of 5×10^7 cells/ml in 50% matrigel. Cells were implanted subcutaneously over the right flank at 5×10^6 cells/100 μl/mouse. […] Antibodies were administered intraperitoneally once a week for 4 weeks. Bortezomib was administered intravenously twice a week for two weeks.

[1] = test system: IM-9 tumor cells (a human multiple myeloma cell line); assay: IM-9 multiple myeloma subcutaneous xenograft model; type: in vivo, SCID mice
Protocol: SCID mice were inoculated subcutaneously with IM-9 tumor cells (a human multiple myeloma cell line expressing both CD40 and CD20) in 50% […]™ at 5×10^6 cells per mouse. […] Alternatively, bortezomib dosing at 1 mg/kg intravenously occurred on days 5, 8, 12, and 15 after tumor implantation. […] Antibody dosing occurred on days 8, 14, and 21 post tumor implantation, while bortezomib dosing occurred on days 8, 11, 14 and 18 post tumor implantation. […] Data were analyzed using the log-rank test.

B-CLL cells [2] = assay: p38 MAPK signaling in B-CLL cells, four-hour experiment; type: cell-based, human; details: 4 hours; SB203580 30 and 60 μM, CHIR-12.12 10 μg/mL
Protocol: In the four-hour experiment, approximately 0.8×10^6 B-CLL cells per well were serum starved in 1% FBS-containing media for 4 hours. […] Cell lysates were collected before and 20 minutes after CD40L stimulation. Western blot analysis with antibodies against specific proteins shown were conducted, and equal loading was evaluated by probing with antibodies to total p38 (t-p38) and β-actin.

B-CLL cells [3] = assay: p38 MAPK signaling and survival in B-CLL cells, 24-hour experiment; type: cell-based, human
Protocol: In the 24-hour experiment, approximately 0.8×10^6 B-CLL cells per well were placed in full serum (10% FBS)-containing media for 24 hours. […] Western blot analysis with antibodies against specific proteins shown was conducted, and equal loading was evaluated by probing with antibodies against β-actin.

[4] = test system: B cells from normal human subjects; assay: In vitro CD40 ligand-mediated proliferation of normal B cells; type: cell-based
Text: (§1) 2, 2000, and PCT International Application No. PCT/US01/30857, also titled “Human Anti-CD40 Antibodies,” filed Oct. 2, 2001, both of which are herein incorporated by reference in their entirety.
(§2) 4, 2003, Nov. 26, 2003, and Apr. 27, 2004, and assigned U.S. Patent Application Nos. 60/517,337, 60/525,579, and 60/565,710, respectively, and International Patent Application No. PCT/US2004/037152, also entitled “Antagonist, Anti-CD40 Monoclonal Antibodies and Methods for Their Use,” filed Nov. 4, 2004; the contents of each of which are herein incorporated by reference in their entirety.

[5] = test system: cancer cells from NHL and CLL patients; assay: In vitro CD40 ligand-mediated proliferation of patient cancer cells; type: cell-based, human
Text: as §2

soluble CD40 = soluble CD40 (Homo sapiens, UniProt P25942); assay: ELISA-type binding to soluble CD40; details: ELISA-type assays
Text: as §1

[6] = test system: primary cancer cells from NHL patients; assay: ADCC against primary cancer cells; type: cell-based, human; details: in vitro
Text: as §2

[7] = test system: human lymphocytes from normal subjects; assay: Proliferation of human lymphocytes; type: cell-based; details: antibody alone
cell-surface CD40 = cell-surface CD40 (Homo sapiens, UniProt P25942); assay: Flow cytometric CD40-ligand binding blockade and displacement; details: flow cytometric assays / FACS
Text: as §1, §2

[8] = test system: CD40-expressing target cells; assay: ADCC activity of anti-CD40 antibodies (Table 1); type: cell-based
[9] = test system: B-CLL cells from patients; assay: PI3K and MEK inhibitors on CD40L signaling and survival in B-CLL cells; type: cell-based, human
Protocol: A PI3K inhibitor (LY294002; Sigma, St. Louis, Mo.) and MEK inhibitor (PD98595; Cell Signaling Technology, Beverly, Mass.) were used to dissect the pathways required for CLL cell survival. In these experiments, 1.0×10^6 B-CLL cells from patients were serum starved in 1% FBS containing media for 4 hours. Serum-starved cells were then pretreated with LY294002 (PI3K inhibitor, 30 μM) or PD98595 (MEK inhibitor, 10 μM). Cell lysates were then collected before and 20 minutes after CD40L stimulation. Western blot analysis with antibodies to p-IKK α/β, p-ERK, p-Akt was conducted, and equal loading was evaluated by probing antibodies to total ERK and β-actin.

normal B cells = assay: CD40L-induced cytokine secretion from normal B cells (Meso Scale Discovery); type: cell-based, human; details: 24 hours
Protocol: (§3) Cells (1×10^5 cells per well) were cultured in a 96-well plate in the presence or absence of CD40L (CD40 transfected, formaldehyde fixed CHO cells, 2×10^5 per well). […] Production of hIL-6, hIL-8, hIL-10, hTNF-α, hGM-CSF, hIL-1b, hIL-12p70, MCP-1, and MIP-1β was measured by Meso Scale Discovery® multi-array system (Meso Scale Discovery, Gaithersburg, Md.).

B-CLL cells [10] = assay: CellTiter-Glo viability of CLL patient PBMCs; type: cell-based, human; details: 72 hours, 2 μg/ml rhsCD40L + 4 μg/ml enhancer
Protocol: Cell viability was determined after 72 hours using the CellTiter-Glo® Luminescent Cell Viability Kit (Promega, Madison, Wis.), which measures cellular ATP, and expressed as Relative Luminescence Units (RLU). Percent blockade was calculated as follows: […]

CLL cells = assay: CD40L-induced cytokine secretion by CLL cells (Meso Scale Discovery); type: cell-based, human; details: CLL #1; 24 hours
Protocol: as §3

B-CLL cells [11] = assay: cPARP flow cytometry of CLL patient PBMCs; type: cell-based, human; details: 24 hours
Protocol: [formula] cPARP analysis by flow cytometry was performed after 24 hours in culture. Cells were treated with FACSLysis buffer (BD Biosciences) and frozen. After fixation in 1% formaldehyde for 45 min, cells were washed and incubated with PE-conjugated mouse anti-human CD19 for 30 min at room temperature (RT). Cells were then permeabilized using 70% ethanol on ice for 30 min and stained for 30 min at RT with rabbit anti-human cPARP antibody or isotype control rabbit IgG along with PerCP-Cy5.5-labeled mouse anti-human CD5. This was followed by incubation with goat anti-rabbit IgG-AlexaFluor 647 for 30 min at RT before fixing with 1% formaldehyde and analyzing by flow cytometry. Percent blockade was calculated as follows: […]

Sequence of cell-surface CD40 (P25942 21-277): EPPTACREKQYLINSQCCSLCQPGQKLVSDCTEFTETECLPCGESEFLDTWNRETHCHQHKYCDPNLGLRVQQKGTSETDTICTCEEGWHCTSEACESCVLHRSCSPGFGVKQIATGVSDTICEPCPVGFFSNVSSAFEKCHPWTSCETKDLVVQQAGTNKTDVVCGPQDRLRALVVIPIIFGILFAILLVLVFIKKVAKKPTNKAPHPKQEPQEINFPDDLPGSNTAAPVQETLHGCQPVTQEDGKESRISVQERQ
Sequence of soluble CD40 (P25942 21-193 limits assumed): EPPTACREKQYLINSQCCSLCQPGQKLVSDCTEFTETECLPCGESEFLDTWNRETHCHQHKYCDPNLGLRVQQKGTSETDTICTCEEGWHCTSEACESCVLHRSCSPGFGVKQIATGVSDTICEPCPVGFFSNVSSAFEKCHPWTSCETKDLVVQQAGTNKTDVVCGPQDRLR

Molecule: CC(C)C[C@H](NC(=O)[C@H](Cc1ccccc1)NC(=O)c1cnccn1)B(O)O [bortezomib, reference compound]
tumor volume reduction (KMS-12-BM tumor): 22%
tumor growth ([1]; first study, CHIR-12.12 1 and 10 mg/kg i.p. days 5, 12, 18, bortezomib 1 mg/kg i.v. days 5, 8, 12, 15): inhibited tumor growth at 15, 18, and 21 days post tumor implantation
tumor growth ([1]; second study, bortezomib 1 mg/kg i.v. days 8, 11, 14, 18): did not display statistically significant growth inhibition

Molecule: C[S+]([O-])c1ccc(-c2nc(-c3ccncc3)c(-c3ccc(F)cc3)[nH]2)cc1 (stereo not shown) [SB203580, reference compound]
p38 activation by CD40L (B-CLL cells [2]): slightly inhibited
cleaved Caspase-3 (B-CLL cells [3]; CD40L): induced to a lesser extent
p38 phosphorylation (B-CLL cells [3]; CD40L): similarly blocked
cleaved-PARP (B-CLL cells [3]; SB203580 30 and 60 μM, CHIR-12.12 10 μg/mL, CD40L): significantly induced
Bcl-xl expression (B-CLL cells [3]; especially 60 μM SB203580 and 10 μg/ml CHIR-12.12): blocked

binding to soluble CD40 (soluble CD40): bind soluble CD40
Molecule: CHIR-5.9: fully human anti-CD40 monoclonal antibody of the IgG1 isotype from hybridoma cell line 131.2F8.5.9 (ATCC PTA-5542)
effect on proliferation of normal B cells [4]: act as antagonist anti-CD40 antibodies; also recorded: inhibit in vitro CD40 ligand-mediated proliferation of normal B cells
effect on CD40 ligand-mediated proliferation of cancer cells [5]: inhibiting in vitro CD40 ligand-mediated proliferation of cancer cells from NHL and CLL patients
killing of primary cancer cells by ADCC [6]: kill primary cancer cells from NHL patients by ADCC
induction of lymphocyte proliferation (agonist activity) [7]: do not induce strong proliferation of human lymphocytes from normal subjects
displacement of pre-bound CD40-ligand (cell-surface CD40): displace the pre-bound CD40-ligand; also recorded: can compete off CD40-ligand pre-bound to cell surface CD40
prevention of CD40-ligand binding to cell-surface CD40 (cell-surface CD40): prevent the binding of CD40-ligand to cell-surface CD40; also recorded: can prevent CD40-ligand binding
killing of CD40-expressing target cells by ADCC [8]: able to kill CD40-expressing target cells

Molecule: COc1cccc(-c2cc(=O)c3ccccc3o2)c1N [PD98595]
IKK/NFkB activation ([9]; LY294002 30 μM or PD98595 10 μM): no change of IKK/NFkB activation
survival mediated by CD40L (cleaved PARP, caspase-3, Bcl-xl) ([9]; LY294002 or PD98595, FIG. 9): no change of survival mediated by CD40L
activation of ERK induced by CD40L ([9]; PD98595 10 μM, 20 minutes after CD40L): inhibited activation of ERK

B1: CD40L: CD40 ligand used as stimulus: transfected formaldehyde fixed CHO cells (Example 4) or recombinant human soluble CD40L (Example 7) (protein)
chain: MIETYNQTSPRSAATGLPISMKIFMYLLTVFLITQMIGSALFAVYLHRRLDKIEDERNLHEDFVFMKTIQRCNTGERSLSLLNCEEIKSQFEGFVKDIMLNKEETKKENSFEMQKGDQNPQIAAHVISEASSKTTSVLQWAEKGYYTMSNNLVTLENGKQLTVKRQGLYYIYAQVTFCSNREASSQAPFIASLCLKSPGRFERILLRAANTHSSAKPCGQQSIHLGGVFELQPGASVFVNVTDPSQVSHGTGFTSFGLLKL
MCP-1 secretion (normal B cells; Donor 1): 5.5 folds of induction over background
MIP-1β secretion (normal B cells; Donor 1): 2.2 folds of induction over background
hGM-CSF secretion (normal B cells; Donor 1): no induction
hIL-1b secretion (normal B cells; Donor 1): no induction
hIL-6 secretion (normal B cells; Donor 1): 5.7 folds of induction over background
hIL-8 secretion (normal B cells; Donor 1): 7.7 folds of induction over background
hIL-10 secretion (normal B cells; Donor 1): 3.6 folds of induction over background
hIL-12p70 secretion (normal B cells; Donor 1): no induction
hTNF-α secretion (normal B cells; Donor 1): 3.7 folds of induction over background
MIP-1β secretion (normal B cells; Donor 2): 2.6 folds of induction over background
hIL-1b secretion (normal B cells; Donor 2): no induction
hIL-6 secretion (normal B cells; Donor 2): 3.8 folds of induction over background
hIL-8 secretion (normal B cells; Donor 2): 14.7 folds of induction over background
hTNF-α secretion (normal B cells; Donor 2): 4.8 folds of induction over background
MCP-1 secretion (normal B cells; Donor 3): 1.7 folds of induction over background
MIP-1β secretion (normal B cells; Donor 3): 17.8 folds of induction over background
hGM-CSF secretion (normal B cells; Donor 3): no induction
hIL-1b secretion (normal B cells; Donor 3): no induction
hIL-6 secretion (normal B cells; Donor 3): 20.5 folds of induction over background
hIL-8 secretion (normal B cells; Donor 3): 49.3 folds of induction over background
hIL-10 secretion (normal B cells; Donor 3): 3.6 folds of induction over background
hIL-12p70 secretion (normal B cells; Donor 3): no induction
hTNF-α secretion (normal B cells; Donor 3): 22.8 folds of induction over background
samples in which CD40L promoted survival of B-CLL cells (B-CLL cells [10]): 7/7
MCP-1 secretion (CLL cells): 5.5 folds of induction over background
MIP-1β secretion (CLL cells): no induction
hGM-CSF secretion (CLL cells): 7.6 folds of induction over background
hIL-1b secretion (CLL cells): no induction
hIL-6 secretion (CLL cells): no induction
hIL-8 secretion (CLL cells): 4.0 folds of induction over background
hIL-10 secretion (CLL cells): 9.2 folds of induction over background
hTNF-α secretion (CLL cells): 3.3 folds of induction over background
samples in which CD40L promoted survival of B-CLL cells (B-CLL cells [11]): 6/7

Reference: US8337851B2, “Methods of monitoring the efficacy of anti-CD40 antibodies in treating a subject for a CD40-expressing cancer” (Novartis AG, priority 2005, dated 2012)
